According to the nanobody polyreactivity screen of Harvey et al. (2022):

Assay: yeast display, Sf9 membrane polyspecificity reagent, FACS + sequencing; frameworks hold sequencing errors
Outline: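 Galactose induction of a Saccharomyces cerevisiae BJ5465 synthetic nanobody display library ran 36–48 hours. The cells were then stained for 1 hour at 4 °C with 10% biotinylated, detergent-solubilized Sf9 membrane reagent, pulled down on streptavidin microbeads and FACS-sorted into low and high (top ~1%) gates on expression and reagent-binding fluorescence. Labels for polyreactivity follow the gate of origin.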

Sequence	polyreactivity (PSR sort gate)
QVQLVESGGGLVQAGGSLRLSCAATGRTLVLYAMGWYRQAPGKERELVAAITWSGDSTYYADSVKGRFSISRDNAKYTVYLQMKSLKPEDTAVYYCAATYLNAKRGLRYDYWGQGTQVSVSS	low polyreactivity
QGHLVESGGRLVQAGGSLRLSCAASGRIFPTYTMGWYRQAPWKERELVAAIRRGGGRTYYADSVKGRFTISRDNAKKTVYLQMNSLKPEDTAVYYCAAPFYRQSLIEYDYWGQGTQVTVSS	high polyreactivity
QVQLVESGGGLVQAGGSLSLSCAAYGFTFERNGMGWYRQAPGKERELVAAISIRGGSTYYADSVKGRFTMSRDNAKNTVSLQMNSLKPEDTAVYYCAVVARRAFDYWGQGTQVTVSS	high polyreactivity
QVQLVESGGGLVQAGGSLRLSCAASGGIFTGYAMGRYRQAPGKERELVAAISSGGTTYYADSVKGRFTISRDNAKNTVDLQMNSLKPEDTAVYYCAAGFYLRAVWMDYWGQGSQVTVSS	high polyreactivity
QVQLVESGGGLVQAGGSLRLSCAASGFTFYSYAMGWYRQAPGKERELVAAISWSGTRTYYADSVKGRFTISRDIAKNTVYLQMNSLKPEDTAVYYCAARGYRYGYGYWGQGTQVTVSS	high polyreactivity
QVQLVESGGGLVQAGGSLRLSCAASGRTFYSNVMGWYIQAPGQERELVASISRGGNTYYADSVKGRFTISRDNAKIPFYLQMNSLKPEDTAVYYCAARQYHSRDFDYWGQGTQVTVSS	low polyreactivity
QVQLVESGGGLVQARGSLRLSCAASGITFNRYVMGWYRQAPGKERELVAAISRTGGSTYYADSVKGRFTISRDNAKNTDFLQMNSLKPEDTAVYYCAAATSPGIYDYWGQGTQVTVSS	high polyreactivity
QVQLVESGGGLVQAGGSLRLSCAPSGSIFGYYTMGCYRQAPGKEREFVAAISYSGGSTYYADSVKGRFTISRDNANNTVYLQMNSLKPEDTAVYYCAARLYYFRGFKYYYWGQGTQVTVSS	low polyreactivity
QVQLVESGGGLVQAGGSLRLSCAASGFIFTRYAMGGYRHAPGKERELVAAISWSGGRTYYADSVKGRFTISRDNANNTVYLQMNSLKPEDTAVYYCAARWVRIRFDYWGQGTQVAVSS	high polyreactivity
QVQLVESGGGLVQAGGSLRLSCAASGLIFFSYAMGWYRQAPGKERELVAAISRRGGRTYYADSVKGRFTISRDNAKNTVYLQMNSLKPEDTAVYYCAADSGYVWYADDYWGQGTQVTVSS	low polyreactivity
QAQLQESGGSLVQAGGGLRLSCAASGYISVGSVMGWYRQAPSKERELGASIDQGANTNYADSVKGRFTISRDNAKNNVYLQMNSLKPEDTAVYYCATETTYILNYWGQGTQVTVSS	low polyreactivity
QVQLVESGGGLVQAGGSLRLSCAASGRIFVSNDMGWYRQAPGKERELVAAISWSDDSTHYADSVKGRFTISRDNAKNTVYLQMNSLKPEDTAVYYCNKQRYYSTWRYDYWGQGTQVTVSS	low polyreactivity
QDQLVESGGGLVQAGGSLRLSCAASGRIFGTYAMGWYRQAPGKERELVATISYSSGRTYYADSVKGRFTISRDNAKNTVYLQMNSLKPEDTAVYYCAAVGTGSSLRYDYWGQGTQVTVSS	high polyreactivity
QVQLVESGGGLVQAGGSLRISCAASGSISVRNVMGWYRHAPGKERELVATIRRTGGSTSYADSVKGRFTISRDNAKNTVYLQMNSLKPEDPAVYYCAAVGYTTYRRYDYWGQGTQVTVSS	low polyreactivity
QVQLVESGGGLVQAGGSLRLSCAASGFTFTQNAAMGWYRQAPGKERELVGAISSGGRTYFADSVKGRFTISRDNAKNTVYLQMNSLKPEDTAVYYCAAVYRRSDFRGAKDGYYYWGQGTQVTVSS	low polyreactivity
QVQLVESGGGLVQAGGSLRLSCAASGLTLYKYAMGWYRQADGKVRELVATSRSRGTSTYYADSVKGRFTISRDNAKNTVYLQMNSLKPEDTAVYDCAADYLYRWLFAYNGGMDYCGQGTQVTVSS	high polyreactivity
QVQLQESGGGLVQAGGSLRPSCAASGSISDRWWMGLYRQAPGKERESVAGINDGASTYYADSVKGRFTISCDNAKNTVYLQMNSLKPEDTAVYYCAVYVFITGCLNYWGQGTQVTVSS	high polyreactivity
QVQLVESGGGLVQAGGSLRLSCAASGRTFTFYTMGWDRQAPGKERELVARITGGGSTYYADSVKGRFTISRDNAKNTVYLQMNSLKPEDTAVYYCAAASGTKRLYRGTRGDYWGQGTQVTVSS	low polyreactivity
QVQLVESGGGLVQAGSSLRLSSAASGSIIGVNAKGRYRQAAGKERELVAAISSTGGSTYYADSVKGRYTISRDNAKNTVFLKMNSLKPDDTAVYYCNTDYSKSIGDGYSGFDYWGQGTQLTVSS	low polyreactivity
QVQLVESGGGLVQAGGSLRLSCAASGRIFYWNPMGWYRQAHGKERELVAAISWSGGSTYYADSVKGRFTISRDNAKNTVYLQMNRLKPEDTAVYYCARKYRSPISALMTGDYWGQGTQVTVSS	low polyreactivity
QVQLVESGGGLVQAGGSLRLSCAASGRIFYGYAKGWYRQAPGKERELVASISRRGYSTYYADSVKGRFTISRDNAKNTVYLQMNSLKPEDTAVYYCAAGYYPFNYWCQGTQVTVSS	high polyreactivity

Sequence	polyreactivity (PSR sort gate)
QVQLVESGGGLVQAGGSLRLSCAASGSTFGGNAMGWYRQAPGKERELVAAISSSGGSTYYADSVKGRFTISRDNAKNTVYLQMNSLKPEDTAVYSCAALYHWTYDYWGQGTQVTVSS	low polyreactivity
QVQHVESGGGLVQAGGSLRLSCAASGRIFNRYAMVWYRQAPGKERELVAAISASGDNTYYADSVKGRFTISRDNAKNTVYLQMISLKPEDTAVFYCAARYYTYLHFSMYYWGQGTQVTVSS	high polyreactivity
QVQLVESGGGLVQAGGSLRLSCAASGNIFDRYVMGWYRQAPGKERELVAAISVSGGSTYYADSVKGRFTISRDNAKNTVFLQMNSLKPEDTAVYYCAAHSRLINWYDYWGQGTQVTVSS	high polyreactivity
QVQLQDSGVGLVQAGGSLRLSCAASGTISYRYRMGSYRQAPRKELELVAGISFGSITYNADSVKGRFTISRDNAKNTVYLQMNSLKPEDIAVYYCAVYQKSYRFFPYWGQGTQVTVSS	high polyreactivity
QFQLVESGGGLVQAGGSLRLSCAASGSTFPLYAMGWYRPAPGKERELVAAITSGGGNTYYADSVKGRFTISRDNAKNTVYLQMNSLKPEDTAVYSCAAVGGYKSYYSYEYDYWGQGTQVTVSS	low polyreactivity
QVQIEESGGGLVQAGRSHRLSCAASGSTFGSYAMRWYRQAPGKERELVAAISASGGSTYYADSVKGRFTISRDNAKHTVYLQMNSLKPEDTAVFYCATVYYSARYNYWGQGTQVTVSS	high polyreactivity
QVQLVESGGGLVQAGGSLRLSCAASGSTFGFNPMGWYRQAPGKERELVAAITGSGGSTYYADSVKGRFTISRDNAKNTVYLQMNSLKPEDTAVYYCARETYGDYVHYDYWGQGTQVTVSS	low polyreactivity
QVQLVESGGGLVQAGGSLRLSCAASGFILDRYAMGWYRQAPGKERELVASITSGGSTNYADSVKGRFTISRDNAKNTVYLQMNSLKPEDTAVYYCAAYPWRYWNHEYNYWGQGTQVTVSS	high polyreactivity
QVQLVESGGGLVQAGGSLRLSCAASGRNFYRYAMGRYREAPGKERELVAAIRYSGGRTYYADSVKGRFTISRDNAKNTFYLQMNSLKPEDTAVYYCASDGQWYYAPFRGGDYENDYWGQGTQVTLSS	low polyreactivity
QVQLVESGGGLVQAGGSLRLSCAASGSIFRVYAMGWYRQAPGKEREFVAAITRRGTRTYYADSVKGRFTISRDNAKNTDYLQMNSLKPEDTAVYYCAAYFTDGLYEYWGQGTQVTVSS	low polyreactivity
QVLLVESGGGLDHAGGSLPLSCAASGFTFGDNAMGWYRQAPGKERELVAAITSTGGSTNYADSVKGRFTISRDNAKYTVYLQMNSLKPDDTAVYYCAAEWLYRHDGGYPRPMDYWGQGTQVTVSS	low polyreactivity
QVHLVESGGGLVQAGGSLRLSCAASGFTFDYNAMGWYRQAPGKEMELVAAISGSGGSTYYADSVKGRFTISRDNAKNTVYLQMNSLKPEDSSVYYCNAGRVTRRDTFDYWGQGTQVTVSS	high polyreactivity
QVQLVESGGGLVQAGGSLRLSCAASGNIFYTNAMGWYRQAPGKERELVAAISGSGGRTYYADSVKGRFTISRDNAKNTVYLQMNSLKPEDTAVYYCNAVRREYYDRTYGYWGQGTQVTVSS	low polyreactivity
QVQLGESGGGLVQAGGSLRLSCAASGLIIFSYAMGWSRQAPGKELEMVAAISRSGGRTYFADSVKGRFTISRDNAKNTVFLQMNRLKPEDTAVYYCAADDPYTPQYPDVTYDFWGQGTQVTVSS	high polyreactivity
QVQLVESGGGLVQAGGSLRLSCAASGSTFAGNAMGWYRQAPGKERELVAASTFSGGRTDYADSVKGRFTISRDNAKNTVYLQMNSLNPEDSAVYYCAAPADDTVHYQNYYWGQGTQVTVSS	low polyreactivity
QVQLVDSAGGLVQAGGTLRLSCADSGFTCSYYAMGWYRQAPGTERELVAAITSGGSTDYADSVKGRFTISRDNEKNTFYLQMHSLKPVDTAVFYCKITPYYAVFYYWGPGTQVTVSS	high polyreactivity
QVQLVESGGGLVQAGGSLRLSCAASGSIIARYAMGWYRQSPGKERELVAAITCSATSTYYADSVKGRFTISRDYAKNTVYLQLNSLKPEDTAVYYWNAGASYFLVISQSRRDYWGQGTQVTVSS	low polyreactivity
QVQLVESGGGLVQAGGSLRLSCAASGSTFDYYAMGWYREAPGKERELVAGITSDGSTYYADSVKGRFTISRDNAKNTVYLQMNSLKPEDTAVYYCNKAPYHWPYEYWGQGTQVTVSS	low polyreactivity
QVQLVESGGGLVQAGGSLRLSCAASGHIFVNKAMGWYRQAPGKEREFVAAITSNGARTYYADSVKGRFTISRDNAKNTVYLQMNSLKPEDTAVYYCAKRFARRSQRYDYWGQGTQVTVSS	high polyreactivity
QVQLVDSGGGLVQAGGSLRLSCAASGITFRYYAMGWYRQAPGKERELVAAITRGGRTNYADSVKGRFTISRDNAKNTVYLQKNSLKPEETAVYYCATGRDSNFGNSYYYWGQGTQVTVSS	high polyreactivity
